Measurements as given in patent publication US20100322974A1, “Targeting the histone code as a bacterial strategy for selectively modulating gene expression” (priority 2005, published 2010).

Tests used:
[1] = test system: histone H3 phosphorylation at Ser 10; assay: H3 pS10 signal in HeLa cells infected with the ospF strain after kinase inhibitor pretreatment; assay type: cell-based; details: both inhibitors together, U0126 10 μM and SB203180 2.5 μM, 60 min pretreatment, 30 min infection
OspF = OspF (Shigella flexneri, UniProt Q8VSP9, R19K/S66F)
p38 MAP kinases = assay: p38 phosphorylation in transfected HeLa cells stimulated by TNF; assay type: cell-based; details: transfected plasmid, TNF stimulation
Experimental: IF was performed with anti-OspF antibodies.

endogenous Erk = assay: Erk phosphorylation in transfected HeLa cells stimulated by PMA; details: transfected expression plasmid, PMA stimulation
phospho Erk2-GST = assay: In vitro phosphatase assay on phospho Erk2-GST (Western blot); details: for dephosphorylation of phospho-Erk2 substrate: purified protein, Western blot with anti phospho-Erk
^33P-labeled Erk2 = target: T1, ^33P-labeled Erk2 (Homo sapiens, UniProt P28482); assay: 33P-labeled Erk2 phosphatase assay, steady state kinetics; assay type: biochemical; details: pH 8, 30° C., 100 nM phosphatase, 10 minutes, Michaelis-Menten fit; for Km: read-out: Km of Erk2 dephosphorylation
T1 construct: made in house
T1 sequence (P28482 whole entry): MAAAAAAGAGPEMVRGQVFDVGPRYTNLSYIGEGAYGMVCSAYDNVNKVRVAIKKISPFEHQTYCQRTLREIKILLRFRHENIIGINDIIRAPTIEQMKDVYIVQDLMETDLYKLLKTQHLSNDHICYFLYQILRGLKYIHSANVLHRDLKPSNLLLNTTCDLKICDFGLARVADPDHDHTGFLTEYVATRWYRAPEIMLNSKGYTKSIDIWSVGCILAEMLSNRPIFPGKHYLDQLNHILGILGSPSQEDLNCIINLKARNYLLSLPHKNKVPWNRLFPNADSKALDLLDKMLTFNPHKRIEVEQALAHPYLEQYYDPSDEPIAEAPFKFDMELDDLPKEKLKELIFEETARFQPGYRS
Source text: In vitro phosphatase assay.

[2] = test system: 33P-labeled Erk2 (GST-Erk2 fusion protein phosphorylated in vitro by MEK1) [GST: P08515]
[3] = test system: histone H3 purified from calf thymus; assay: Direct dephosphorylation of histone H3 or H3 tail peptides in vitro; assay type: biochemical; details: 2 hours 30° C., even at 100 fold increased enzyme concentration
[4] = test system: histone H3 phosphorylation at Ser 10; assay: H3 pS10 induced by okadaic acid in HeLa cells overexpressing OspF (immunofluorescence); assay type: cell-based; details: 200 nM okadaic acid 3 hours
Experimental: (A) HeLa cells were left untreated (ns) or infected with the WT or the ospF strain at the indicated time. Indirect immunofluorescence detection was performed with anti-phospho-histone H3 S10 polyclonal antibody. (B) HeLa cells were synchronized by a double thymidine block (2 mM thymidine) and left untreated (ns) or infected with the WT or the ospF strain at the indicated time. Immunoblots were probed with anti-H3 phospho S10 (H3 pS10), anti-H3 methyl K9-phospho S10 (H3 metK9-pS10), anti-H3 phospho S10 acetyl-K14 (H3 p-S10/Ac-K14), anti Histone H3 polyclonal anti-pp 38 and pErk antibodies. (C) HeLa cells were transfected with pRK5myc-OspF vector and treated with 200 nM okadaic acid for 3 hours. IF was performed with anti-myc (red) and anti-H3 methyl K9-pS10 (green) antibodies. […] (D) One micogram of calf-thymus histone (Sigma) was incubated with 300 ng of His-OspF or with 120 U of λ phosphatase for 2 hours at 30° C. Western blot was performed with an anti-metK9-pS10 antibody. (E) One micogram of peptide metK9-S10 was spotted onto a nitrocellulose membrane that was incubated with buffers, 5 μg/ml of OspF, or 2000 U/ml of lambda phosphatase for 2 hours at 30° C. Western blot was performed with an anti-metK9-pS10 antibody. (F) HeLa cells were pretreated for 60 min with either the MEK1 inhibitor U0126 (10 μM) or the p38 inhibitor SB203180 (2.5 μM) or both. […]

IL-8 promoter = assay: ChIP with anti-OspF antibody at the IL-8 promoter in transfected HeLa cells; assay type: cell-based
Experimental: (A) DNA isolated from sonicated cross-linked chromatin fragments used as inputs for Chlp assays run on a 2% agarose/TAE gel. (B) Cross-linked chromatin fragments were prepared from Caco 2 cells left untreated (ns) or infected with the WT or the ospF strains at the indicated time. For each time point, aliquots were immunoprecipitated with irrelevant IgG, anti-H3 methyl K9-pS10, or anti-p65 antibodies. Histograms show the results obtained by Real-Time PCR analysis using amplicon from the promoter region of IL-8. Data are expressed as relative enrichment as compared to the result obtained with the corresponding IgG that have been immunoprecipitated at the same time point. […] (C) The data are given as in figure (B) except that the aliquots were immunoprecipitated with irrelevant IgG or anti-RNAPII antibodies. […]
To address whether MAPK-induced H3pS10 in the vicinity of the IL-8 promoter, HeLa cells expressing the plasmids encoding WT ospF, or as control, a C-terminal deletion mutant of the last 30 amino acids ospF (1-221) unable to localize within the nucleus (FIG. 7G) were processed for chromatin immunoprecipitation (ChIP) assay using the anti-OspF antibody and the enrichment of OspF at the IL-8 promoter was analyzed by Real-Time quantitative PCR.
In unstimulated cells, no signal was detected at the IL-8 promoter (FIG. 7H). […]

NF-κB = assay: TNF-α-induced NF-κB reporter construct in Caco 2 cells; assay type: cell-based, human; details: overexpression in Caco 2 cells
Source text: In addition to the classical MAPK-dependent target genes, OspF also repressed expression of some NF-κB-dependent chemokine genes such as IL-8. The IL-8 promoter contains an NF-κB binding site essential for expression of this gene (Hoffmann et al., 2002). Therefore, the inventors looked whether OspF interferes with the NF-κB signaling pathway.

IL-12 = assay: Cytokine production in infected lungs (murine pulmonary infection, ELISA); assay type: in vivo, mice; details: lungs infected with M90T or ospF strain, 24 hours post-infection
Experimental: The cytokine/chemokine network induced upon infection with Shigella flexneri was analyzed by comparing the profiles obtained upon infection with the invasive strain carrying the virulence plasmid (INV+) and the non-invasive, plasmidless strain (INV−). The murine model of pulmonary infection was used since it was the only valid model to analyze the specific host immune response upon Shigella infection. Following infection with INV−, a Th1 type-network (IL-12, IL-18, CCL9, CCL10, CCL13, and CCL4) was induced. In contrast, a Th2/Tr1 profile (IL-10, CCL1, CCL24 and CCL2) was induced upon infection with INV+. The difference observed was not due to the bacterial dose used for the infection, but was dependent on the presence or absence of the virulence plasmid.
Some of these bacterial effectors are injected within the host cells by a type III secretion apparatus. Use of different bacterial mutants, has highlighted that the bacterial effectors involved in the immunomodulation were effectors secreted by the type III-secretion apparatus. Finally, OspF, a type III-secreted bacterial effector was responsible for the control of IL-12 production (FIG. 10).

[5] = test system: histone H3 K14 acetylation; assay: Trichostatin-induced hyper acetylation on K14 in HeLa cells overexpressing OspF; assay type: cell-based
Source text: A plasmid encoding myc-labelled OspF was used to overexpress OspF in HeLa cells. […] Thus, variations of the levels of phosphoacetylated histone H3 are likely to reflect the sole capacity of OspF to reduce the level of phosphorylation at Ser10.

phospho JNK1 = assay: In vitro phosphatase assay on purified phospho JNK1 Histidine; assay type: biochemical; details: 50 nM substrate
phospho p38-GST = assay: In vitro phosphatase assay on purified phospho p38-GST; assay type: biochemical; details: 50 nM substrate
[6] = target: 33P-labeled Erk2 (GST-Erk2 fusion protein phosphorylated in vitro by MEK1) [GST: P08515]; remark: listed apart in the source

C[S+]([O-])c1ccc(-c2nc(-c3ccc(F)cc3)c(-c3ccncc3)[nH]2)cc1 (centres unmarked) [SB 203180]
H3 pS10 signal induced by the ospF strain [1]: fully inhibited

O=C(O)CN(CCN(CC(=O)O)CC(=O)O)CC(=O)O [EDTA]
OspF activity blocked by EDTA (metal dependence) (OspF): not blocked

N#CC(=C(/N)Sc1ccccc1N)/C(C#N)=C(\N)Sc1ccccc1N [U0126]
H3 pS10 signal induced by the ospF strain [1]: fully inhibited

myc-labelled OspF: myc labelled OspF expressed from plasmid pRK5myc-OspF
prevention of p38 phosphorylation in HeLa cells (p38 MAP kinases): prevented phosphorylation
ability to dephosphorylate Erk / prevent Erk phosphorylation in HeLa cells (endogenous Erk): prevented phosphorylation

His to Leu mutation at position 172: OspF with His to Leu mutation at position 172
ability to dephosphorylate Erk / prevent Erk phosphorylation in HeLa cells (endogenous Erk): retention of phosphatase activity

C1805: OspF with Cys 180 mutated into Ser (printed C1805)
ability to dephosphorylate Erk / prevent Erk phosphorylation in HeLa cells (endogenous Erk): None of the mutations

D219: OspF with aspartate D219 mutated into asparagine
dephosphorylation of phospho-Erk2 substrate (phospho Erk2-GST): did not impair phosphatase activity

B1: MKP1 (enzyme, UniProt P28562 1-367, looked up, species assumed)
Dual specificity protein phosphatase 1: MVMEVGTLDAGGLRALLGERAAQCLLLDCRSFFAFNAGHIAGSVNVRFSTIVRRRAKGAMGLEHIVPNAELRGRLLAGAYHAVVLLDERSAALDGAKRDGTLALAAGALCREARAAQVFFLKGGYEAFSASCPELCSKQSTPMGLSLPLSTSVPDSAESGCSSCSTPLYDQGGPVEILPFLYLGSAYHASRKDMLDALGITALINVSANCPNHFEGHYQYKSIPVEDNHKADISSWFNEAIDFIDSIKNAGGRVFVHCQAGISRSATICLAYLMRTNRVKLDEAFEFVKQRRSIISPNFSFMGQLLQFESQVLAPHCSAEAGSPAMAVLDRGTSTTTVFNFPVSIPVHSTNSALSYLQSPITTSPSC
Vmax of Erk2 dephosphorylation (^33P-labeled Erk2): 6.01 pM/s
kcat of Erk2 dephosphorylation (^33P-labeled Erk2): 0.0006 s⁻¹
Km (^33P-labeled Erk2): 0.229 µM
Km (release of radioactive inorganic phosphate, Michaelis-Menten fit, 100 nM enzyme) [2]: 0.229 µM
Vmax (release of radioactive inorganic phosphate, Michaelis-Menten fit, 100 nM enzyme) [2]: 6.01 pM/s
dephosphorylation of 33P-labeled Erk2 (gel mobility in SDS-PAGE/autoradiography, phospho-Erk Western blot) [2]: Dephosphorylation of Erk2 by both enzymes was confirmed by the gel-mobility increase of the substrate
kcat (release of radioactive inorganic phosphate, Michaelis-Menten fit, 100 nM enzyme) [2]: 0.0006 s⁻¹

B2: OspF phosphatase (protein)
chain: MPIKKPCLKLNLDSLNVVKSEIPQMLSANERLKNNFNILYNQIRQYPAYYFKVASNVPTYSDICQFFSVMYQGFQIVNHSGDVFIHACRENPQSKGDFVGDKFHISIAREQVPLAFQILSGLLFSEDSPIDKWKITDMNRVSQQSRVGIGAQFTLYVKSDQECSQYSALLLHKIRQFIMCLESNLLRSKIAPGEYPASDVRPEDWKYVSYRNELRSDRDGSERQEQMLREEPFYRLMIE
direct dephosphorylation of histone H3 and metK9-pS10 / pS10 peptides [3]: did not directly dephosphorylate
induction of H3 pS10 by okadaic acid [4]: efficiently prevented
recruitment of OspF at the IL-8 promoter (IL-8 promoter; TNF-α stimulation): transient recruitment
OspF at the IL-8 promoter (IL-8 promoter; unstimulated cells): not detectable
TNF-α-induced activation of a NF-κB reporter construct (NF-κB): did not impair
Vmax of Erk2 dephosphorylation (^33P-labeled Erk2): 9.89 pM/s
kcat of Erk2 dephosphorylation (^33P-labeled Erk2): 0.0001 s⁻¹
Km (^33P-labeled Erk2): 0.204 µM
IL-12 production in vivo (IL-12): down regulated
trichostatin-induced hyper acetylation on K14 [5]: did not impair
dephosphorylation of purified phospho JNK1 (phospho JNK1): failed to dephosphorylate
dephosphorylation of purified phospho p38 (phospho p38-GST): directly dephosphorylated
dephosphorylation of pT183 and pY185 residues of Erk (phospho Erk2-GST; 500 ng OspF, 50 ng phospho Erk2-GST, 1 hour 30° C.): dephosphorylated both Thr and Tyr residues
dephosphorylation of phospho-Erk2 substrate (phospho Erk2-GST): directly dephosphorylated
Km (release of radioactive inorganic phosphate, Michaelis-Menten fit, pH 8, 30° C., 100 nM enzyme) [6]: 204 nM
Vmax (release of radioactive inorganic phosphate, Michaelis-Menten fit, pH 8, 30° C., 100 nM enzyme) [6]: 9.89 pM s^-1
kcat (release of radioactive inorganic phosphate, Michaelis-Menten fit, pH 8, 30° C., 100 nM enzyme) [6]: 0.0001 s^-1
